Measurements from US20200148733A1 (Pieris, published 2020).

T1: human IL-23 (human, UniProt Q9NPF7 20-189; P29460 23-328)
T1 sequence (looked up) 1: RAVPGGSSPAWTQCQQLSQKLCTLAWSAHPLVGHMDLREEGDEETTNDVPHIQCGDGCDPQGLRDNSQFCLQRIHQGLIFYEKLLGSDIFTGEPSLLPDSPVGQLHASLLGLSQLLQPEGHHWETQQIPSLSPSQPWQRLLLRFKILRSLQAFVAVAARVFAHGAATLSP
T1 sequence (looked up) 2: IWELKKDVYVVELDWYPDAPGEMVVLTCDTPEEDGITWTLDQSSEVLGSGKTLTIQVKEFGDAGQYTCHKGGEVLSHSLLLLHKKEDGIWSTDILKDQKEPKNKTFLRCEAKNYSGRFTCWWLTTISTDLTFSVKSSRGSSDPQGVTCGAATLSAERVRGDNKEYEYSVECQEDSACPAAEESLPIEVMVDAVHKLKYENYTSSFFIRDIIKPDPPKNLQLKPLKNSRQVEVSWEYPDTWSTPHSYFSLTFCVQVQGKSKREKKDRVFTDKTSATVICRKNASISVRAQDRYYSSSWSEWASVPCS

T2: mouse IL-23 (mouse, UniProt Q9EQ14 22-196; P43432 23-335)
T2 construct: also called mIL-23
T2 sequence (looked up) 1: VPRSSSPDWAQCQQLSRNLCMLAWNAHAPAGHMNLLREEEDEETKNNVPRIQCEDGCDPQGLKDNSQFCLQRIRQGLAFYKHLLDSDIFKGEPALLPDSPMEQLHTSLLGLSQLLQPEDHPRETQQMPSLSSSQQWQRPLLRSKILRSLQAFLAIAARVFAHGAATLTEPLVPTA
T2 sequence (looked up) 2: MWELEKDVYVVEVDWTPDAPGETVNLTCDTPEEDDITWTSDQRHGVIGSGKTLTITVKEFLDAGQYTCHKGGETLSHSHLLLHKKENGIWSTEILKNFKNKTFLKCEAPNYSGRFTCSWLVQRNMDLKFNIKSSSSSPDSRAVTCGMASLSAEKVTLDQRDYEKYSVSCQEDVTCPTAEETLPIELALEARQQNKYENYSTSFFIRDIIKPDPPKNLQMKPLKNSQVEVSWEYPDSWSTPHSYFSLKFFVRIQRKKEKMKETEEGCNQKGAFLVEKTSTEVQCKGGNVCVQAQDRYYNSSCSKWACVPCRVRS

T3: human IL-12p40 (human, UniProt P29460 23-328)
T3 construct: also called hIL-12p40
T3 sequence (looked up): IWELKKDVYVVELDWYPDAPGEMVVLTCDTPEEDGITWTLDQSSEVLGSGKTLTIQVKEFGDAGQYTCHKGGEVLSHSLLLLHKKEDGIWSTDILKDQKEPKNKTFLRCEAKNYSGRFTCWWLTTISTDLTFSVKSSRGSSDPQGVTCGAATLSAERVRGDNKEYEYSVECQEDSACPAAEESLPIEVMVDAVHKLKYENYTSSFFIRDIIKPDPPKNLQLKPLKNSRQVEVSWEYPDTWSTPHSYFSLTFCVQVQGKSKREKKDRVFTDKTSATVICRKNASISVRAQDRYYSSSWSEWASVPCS


How the values were obtained:
human IL-23 [1] = target: T1, human IL-23; assay: cell-based or functional assay
mouse IL-23 [2] = target: T2, mouse IL-23; assay: solution competition ELISA (FIG. 5A)
Protocol: (§1) In the following detailed experimental protocol, incubation and washing steps were performed as described above in the competition ELISA protocol. A 384-well plate suitable for fluorescence measurements (Greiner FLUOTRAC™ 600, black flat bottom, high-binding) was coated with 20 μl of Neutravidin at a concentration of 5 μg/ml in PBS over night at 4° C. After washing, the Neutravidin-coated wells were blocked with 100 μl PBS-T/BSA for 1h at room temperature.

human IL-12p40 [3] = target: T3, human IL-12p40; assay: solution competition ELISA, 1 nM SEQ ID NO: 10, plate with biotinylated hIL-23
Protocol: as §1

human IL-23 [4] = target: T1, human IL-23; assay: Surface Plasmon Resonance, legend of FIG. 6C (rounded value of the measurement of the example)
Protocol: (§2) Residual activated groups were quenched with ethanolamine. The reference channels were treated with EDC/NHS following ethanolamine (blank immobilization).
(§3) The binding assay was carried out with a contact time of 300 s, dissociation time of 1200 s and applying a flow rate of 30 μL/min. All measurements were performed at 25° C. […] Prior to the protein measurements three startup cycles were performed for conditioning purposes. Data were evaluated with Biacore T200 Evaluation software (V 1.0). Double referencing was used. The 1:1 Binding model was used to fit the raw data.

human IL-23 [5] = target: T1, human IL-23; assay: SPR (Biacore T200), IL-23 amine-coupled to CM5 chip, mutein in solution, 25 C, 1:1 binding model
Protocol: as §2, §3

human IL-23 [6] = target: T1, human IL-23; assay: SPR (Biacore T200), hIL-23 immobilized on CM5 chip, mutein injected, fit 1:1 Binding
Protocol: as §2, §3

human IL-23 [7] = target: T1, human IL-23; assay: competition ELISA (ECL): 0.01 nM biotinylated hIL-23 pre-incubated with varied mutein, free hIL-23 captured on coated soluble hIL-23R (competitor)
Protocol: All incubation steps were performed with shaking 300 rpm, and the plate was washed after each incubation step with 80 μl PBS/0.05% Tween 20 for five times using a Biotek ELx405 select CW washer. […] After washing, the receptor-coated wells were blocked with 60 μl PBS-T/BSA for 1 h at room temperature.
After washing, 60 μl MSD Read Buffer T (2×) was added to each well and the plate was read within 15 min.

mouse IL-23 [8] = target: T2, mouse IL-23; assay: solution competition ELISA (FIG. 5B)
Protocol: as §1

human IL-12p40 [9] = target: T3, human IL-12p40; assay: solution competition ELISA, 10 nM SEQ ID NO: 9, plate with biotinylated hIL-23
Protocol: as §1

human IL-23 [10] = target: T1, human IL-23; assay: Surface Plasmon Resonance, legend of FIG. 6B (rounded value of the measurement of the example)
Protocol: as §2, §3

Row | EC50 [nM] AVERAGE, hIL-23-induced proliferation of Ba/F3 cells expressing hIL-23R and hIL-12Rβ1 (human IL-23 [1]) [nM] | EC50 [nM] Exp 1, hIL-23-induced proliferation of Ba/F3 cells expressing hIL-23R and hIL-12Rβ1 (human IL-23 [1]) [nM] | EC50 [nM] Exp 2, hIL-23-induced proliferation of Ba/F3 cells expressing hIL-23R and hIL-12Rβ1 (human IL-23 [1]) [nM] | EC50 [nM] Exp 3, hIL-23-induced proliferation of Ba/F3 cells expressing hIL-23R and hIL-12Rβ1 (human IL-23 [1]) [nM] | EC50 [nM] Exp 4, hIL-23-induced proliferation of Ba/F3 cells expressing hIL-23R and hIL-12Rβ1 (human IL-23 [1]) [nM] | binding result (mouse IL-23 [2]) | Kd (human IL-23 [4]) [nM] | Kd (human IL-23 [5]) [nM] | koff (human IL-23 [5]) [s⁻¹] | kon (human IL-23 [5]) [M⁻¹ s⁻¹] | koff (human IL-23 [6]) [s⁻¹] | kon (human IL-23 [6]) [M⁻¹ s⁻¹] | IC50 (human IL-23 [7]) [nM] | binding result (mouse IL-23 [8]) | Kd (human IL-23 [10]) [nM] | Binder | binding result (human IL-12p40 [3]) | binding result (human IL-12p40 [9])
1 | 332 | 515 | 199 | 316 | 296 | binds | 11 | 11.5 | 0.00048 | 42000 | 0.000598 | 36300 | 1.9 |  |  | lipocalin mutein SEQ ID NO: 10 (designed binder, Human NGAL (lipocalin 2) mutein specific for IL-23p19) QDSTSDLIPAPPLSKVPLQQNFQDNQFHGKWYVVGLAGNTILREDKDPDKMEATIYELKEDKSYNVTSVDFIMKKCWYFITTFVPGSQPGEFTLGHIKSMPGMTSFLVRVVSTNYNQHAMVFFKYVYQNREFFEITLYGRTKELTSELKENFIRFSKSLGLPENHIVFPVPIDQCIDG | no binding (tested: ligand up to 1000 nM) | 
2 |  |  |  |  |  |  |  | 135 | 0.00063 | 4700 | 0.00063 | 4650 | 119 | binds | 135 | lipocalin mutein SEQ ID NO: 9 (designed binder, Human NGAL (lipocalin 2) mutein specific for IL-23p19) QDSTSDLIPAPPLSKVPLQQNFQDNQFHGKWYVVGMAGNLMLREDKDPTKMSATIYELKEDKSYNVTWVDFRFKKCKYQIGTFVPGSQPGEFTLGGIKSMPGMTSFLVRVVSTNYNQHAMVFFKYVYQNREYFEITLYGRTKELTSELKENFIRFSKSLGLPENHIVFPVPIDQCIDG |  | no binding (tested: ligand up to 1000 nM)
